Measured values reported in patent publication US20170066831A1 (Janssen / Centocor, published 2017).
Changes are numbered by the printed parent chain.

What was measured:
[1] = molecular target: T1, human ST2L extracellular domain with C-terminal His6 tag (human, UniProt Q01638 19-328); test: RLB ELISA: biotinylated IL-33 on coated huST2L-ECD, antibody titrated
T1 construct: also called huST2L-ECD; ST2L-ECD
T1 sequence: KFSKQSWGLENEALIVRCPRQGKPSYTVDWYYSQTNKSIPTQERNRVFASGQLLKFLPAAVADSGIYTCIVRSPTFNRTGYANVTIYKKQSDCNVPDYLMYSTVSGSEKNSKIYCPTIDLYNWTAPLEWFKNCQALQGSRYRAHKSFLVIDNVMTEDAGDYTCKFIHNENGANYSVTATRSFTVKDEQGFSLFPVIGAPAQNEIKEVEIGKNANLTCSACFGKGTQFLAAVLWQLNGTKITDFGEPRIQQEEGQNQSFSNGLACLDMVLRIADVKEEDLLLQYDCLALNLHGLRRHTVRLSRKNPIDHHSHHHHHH
Outline: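 Plates coated 16 h at 4 °C with His6-tagged ST2L-ECD (human aa 19-328, 4 μg/ml; cyno aa 19-321, 2 μg/ml). Titrated mAbs applied 1 h at RT, then biotinylated IL-33 added 30 min (human 112-270 at 100 ng/ml final; cyno 112-269 at 200 ng/ml final). Bound ligand detected with streptavidin-HRP/TMB, OD450.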

[2] = molecular target: T2, K55E; test: SPR, ProteOn XPR36, 25 C; mAb captured on anti-Fc surface, ST2L-D1D2 (HH-ST2L) variant injected; 1:1 model
T2 construct: also called HH-ST2L (ST2L-D1D2) variant K55E
T2 receptor fragment (Domains I and II): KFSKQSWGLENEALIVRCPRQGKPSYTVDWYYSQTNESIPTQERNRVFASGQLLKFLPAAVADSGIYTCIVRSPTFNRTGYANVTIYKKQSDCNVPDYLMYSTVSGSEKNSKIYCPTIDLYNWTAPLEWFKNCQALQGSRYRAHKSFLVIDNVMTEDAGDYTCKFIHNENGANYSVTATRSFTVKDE
Protocol: (§1) Binding studies were performed using the ProteOn XPR36 Protein Interaction Array system (Bio-Rad) (Bravman T, et al. Anal Biochem 358:281-288, 2006). […] Individual anti-ST2L mAb was then captured by flowing (1 μg/mL) antibody solution prepared in PBS containing 0.5% Nonidet P-40 and 0.5% Na-deoxycholate). The signal in the surfaces reached ˜250 resonance units (RU, 1 RU=1 pg protein/mm²) in the anti-Fc-coated surfaces, confirming that these antibodies specifically capture anti-ST2L mAbs. After 90° rotation of the fluid system, wild type of ST2L-D1D2 or variant proteins (0.5 mg/mL in PBS containing 0.5% Nonidet P-40 and 0.5% Na-deoxycholate) was injected in the parallel flow channels. All of these assays were performed at 25° C. The ST2L-D1D2-dependent signals on the surfaces were obtained by double referencing, subtracting the response observed on surfaces immobilizing the antibodies alone, and the signal observed injecting the vehicle alone (which allows correction for binding-independent responses). The resulting sensorgrams were fitted by the simplest 1:1 interaction model (ProteOn analysis software), to obtain the corresponding association and dissociation rate constants (kₐ and kd).

[3] = molecular target: T3, E61K; test: as above
T3 construct: also called HH-ST2L (ST2L-D1D2) variant E61K
T3 receptor fragment (Domains I and II): T2 receptor fragment (Domains I and II) with E37K, E43K
Protocol: as §1

[4] = molecular target: T4, 69GQL71-->RDR; test: as above
T4 construct: also called HH-ST2L (ST2L-D1D2) variant with 69GQL71 changed to RDR
T4 receptor fragment (Domains I and II): T2 receptor fragment (Domains I and II) with E37K, G51R, Q52D, L53R
Protocol: as §1

[5] = molecular target: T5, A80E; test: as above
T5 construct: also called HH-ST2L (ST2L-D1D2) variant A80E
T5 receptor fragment (Domains I and II): T2 receptor fragment (Domains I and II) with E37K, A62E
Protocol: as §1

IC50 [1]: 0.47 µg/mL
Kd [2]: 0.01 nM
koff [2]: 0.000129 s⁻¹
kon [2]: 1.26e+07 M⁻¹ s⁻¹
Kd [3]: 8.1 pM
koff [3]: 0.000126 s⁻¹
kon [3]: 1.55e+07 M⁻¹ s⁻¹
Kd [4]: 9.6 pM
koff [4]: 9.27e-05 s⁻¹
kon [4]: 1.02e+07 M⁻¹ s⁻¹
Kd [5]: 0.011 nM
koff [5]: 0.000127 s⁻¹
kon [5]: 1.15e+07 M⁻¹ s⁻¹
B1: STLM208 (antibody, V domains shown)
VH: EVQLLESGGGLVQPGGSLRLSCAASGFTFSIYDMIWVRQAPGKGLEWVSSIRGEGGGTYYADSVKGRFTISRDNSKNTLYLQMNSLRAEDTAVYYCARDPWSTEGSFFVLDYWGQGTLVTVSS
VL: EIVLTQSPATLSLSPGERATLSCRASQSVDDDLAWYQQKPGQAPRLLIYDASNRATGIPARFSGSGSGTDFTLTISSLEPEDFAVYYCQQYITAPLTFGQGTKVEIK
notes: frameworks VH3-23 / Vk-L6
